Experimental data as given in US20210122823A1 (EXCELMAB, published 2021).

Assays:
[1] = biological target: HER2 on tumor cell lines (SKBR-3, NCI-N87, MCF-7; 293F as HER2-negative control) (human, UniProt P04626 23-1255); assay: cell-based or functional assay
human CD3 antigen = biological target: T1, human CD3 antigen (human, UniProt P07766 23-126); assay: ELISA, CD3 antigen coated on plate, anti-human IgG-peroxidase detection
T1 construct: also called antigen CD3
T1 sequence (P07766 23-126): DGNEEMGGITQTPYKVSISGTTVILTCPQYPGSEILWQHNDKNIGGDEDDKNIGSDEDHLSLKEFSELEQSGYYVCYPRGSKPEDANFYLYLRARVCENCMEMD

| EC50 (human CD3 antigen) [µg/mL] | Binder | EC50 of PBMC-mediated killing of NCI-N87 cells (LDH release) [1] [µg/mL] | EC50 of PBMC-mediated killing of SKBR-3 cells (LDH release), fold lower than Herceptin [1] |
| --- | --- | --- | --- |
| 1.4 | HER2-OB1×GXP2 bispecific antibody (bispecific antibody, human IgG1, kappa, L234A L235A, also called HER2×GXP2; Her2×GXP2) heavy 1: not shown heavy 2: EVQLVESGGGLVQPGGSLKLSCAASGFTFNTYAMNWVRQAPGKGLEWVARIRSKYNNYATYYADSVKDRFTISRDDSKNTAYLQMNNLKTEDTAMYYCVRHGNFGNSYVSWFAYWGQGTLVTVSSASTKGPSVFPLAPSSKSTSGGTAALGCLVKDYFPEPVTVSWNSGALTSGVHTFPAVLQSSGLYSLSSVVTVPSSSLGTQTYICNVNHKPSNTKVDKKVEPKSCDKTHTCPPCPAPEAAGGPSVFLFPPKPKDTLMISRTPEVTCVVVDVSHEDPEVKFNWYVDGVEVHNAKTKPREEQYNSTYRVVSVLTVLHQDWLNGKEYKCKVSNKALPAPIEKTISKAKGQPREPQVYTLPPSRDELTKNQVSLTCLVKGFYPSDIAVEWESNGQPENNYKTTKKKLDSDGSFFLYSKLTVDKSRWQQGNVFSCSVMHEALHNHYTQKSLSLSPGK light: DIQMTQEPSLTTSPGGTVTLTCRSSTGAVTTSNYANWVQEKPGQAPRGLIGGTNKRAPGTPARFSGSLIGGKAALTITGVQPEDEAIYFCALWYSNLWVFGGGTKLEIKRTVAAPSVFIFPPSDEQLKSGTASVVCLLNNFYPREAKVQWKVDNALQSGNSQESVTEQDSKDSTYSLSSTLTLSKADYEKHKVYACEVTHQGLSSPVTKSFNRGEC | 0.000395 | > 100 times lower than Herceptin |
| 3.15 | HER2-OB1×GXP bispecific antibody (bispecific antibody) chain 1: not shown chain 2: EVKLLESGGGLVQPKGSLKLSCAASGFTFNTYAMNWVRQAPGKGLEWVARIRSKYNNYATYYADSVKDRFTISRDDSQSILYLQMNNLKTEDTAMYYCVRHGNFGNSYVSWFAYWGQGTLVTVSSASTKGPSVFPLAPSSKSTSGGTAALGCLVKDYFPEPVTVSWNSGALTSGVHTFPAVLQSSGLYSLSSVVTVPSSSLGTQTYICNVNHKPSNTKVDKKVEPKSCDKTHTCPPCPAPEAAGGPSVFLFPPKPKDTLMISRTPEVTCVVVDVSHEDPEVKFNWYVDGVEVHNAKTKPREEQYNSTYRVVSVLTVLHQDWLNGKEYKCKVSNKALPAPIEKTISKAKGQPREPQVYTLPPSRDELTKNQVSLTCLVKGFYPSDIAVEWESNGQPENNYKTTKKKLDSDGSFFLYSKLTVDKSRWQQGNVFSCSVMHEALHNHYTQKSLSLSPGK chain 3: QAVVTQESALTTSPGETVTLTCRSSTGAVTTSNYANWVQEKPDHLFTGLIGGTNKRAPGVPARFSGSLIGDKAALTITGAQTEDEAIYFCALWYSNLWVFGGGTKLVTMEIKRTVAAPSVFIFPPSDEQLKSGTASVVCLLNNFYPREAKVQWKVDNALQSGNSQESVTEQDSKDSTYSLSSTLTLSKADYEKHKVYTCEVTHQGLSSPVTKSFNRGEC |  |  |
